From US7981997B2, “Growth factor which acts through ErbB-4 RTK” (Yeda Research And Development Co., priority 2000, dated 2011)

How the values were obtained:
[1] = system: Chinese Hamster Ovary (CHO) cell line; assay: Binding to untransfected CHO cells (low ErbB-2, no other ErbB); conditions: cells express low amounts of ErbB-2, no other ErbB receptor
Protocol: To test the prediction that NRG-4 can recognize a surface-expressed ErbB-4, but no other membrane-bound ErbB protein, a Chinese Hamster Ovary (CHO) cell line was employed. […] CHO cells were transfected with plasmid vectors directing expression of ErbB-4, or co-transfected with an ErbB-4 plasmid together with vectors expressing one of the three other ErbB proteins. Two days later, cells were incubated with ^125I-NRG-4, or with a radiolabeled NRG-1 as control, and subsequently the formed ligand-receptor complexes were stabilized by using a covalent crosslinking reagent. Immunoprecipitation of the expressed ErbB proteins allowed analysis of the covalently held complexes. […] Nevertheless, both monomers and dimers of ErbB-4 were formed by the two ligands (detection of NRG-4-containing dimers required longer film exposures).

ErbB-4 = molecular target: T1, ErbB-4 (Homo sapiens, UniProt Q15303); assay: Ligand displacement analysis of radiolabeled NRG-1β on ErbB-4-expressing CHO cells; format: binding; conditions: displacement of surface-bound radiolabeled NRG-1β
T1 construct: expressed in transfected cells; host or cells: CHO (Chinese Hamster Ovary) cells
T1 sequence (Q15303 26-1308, species assumed): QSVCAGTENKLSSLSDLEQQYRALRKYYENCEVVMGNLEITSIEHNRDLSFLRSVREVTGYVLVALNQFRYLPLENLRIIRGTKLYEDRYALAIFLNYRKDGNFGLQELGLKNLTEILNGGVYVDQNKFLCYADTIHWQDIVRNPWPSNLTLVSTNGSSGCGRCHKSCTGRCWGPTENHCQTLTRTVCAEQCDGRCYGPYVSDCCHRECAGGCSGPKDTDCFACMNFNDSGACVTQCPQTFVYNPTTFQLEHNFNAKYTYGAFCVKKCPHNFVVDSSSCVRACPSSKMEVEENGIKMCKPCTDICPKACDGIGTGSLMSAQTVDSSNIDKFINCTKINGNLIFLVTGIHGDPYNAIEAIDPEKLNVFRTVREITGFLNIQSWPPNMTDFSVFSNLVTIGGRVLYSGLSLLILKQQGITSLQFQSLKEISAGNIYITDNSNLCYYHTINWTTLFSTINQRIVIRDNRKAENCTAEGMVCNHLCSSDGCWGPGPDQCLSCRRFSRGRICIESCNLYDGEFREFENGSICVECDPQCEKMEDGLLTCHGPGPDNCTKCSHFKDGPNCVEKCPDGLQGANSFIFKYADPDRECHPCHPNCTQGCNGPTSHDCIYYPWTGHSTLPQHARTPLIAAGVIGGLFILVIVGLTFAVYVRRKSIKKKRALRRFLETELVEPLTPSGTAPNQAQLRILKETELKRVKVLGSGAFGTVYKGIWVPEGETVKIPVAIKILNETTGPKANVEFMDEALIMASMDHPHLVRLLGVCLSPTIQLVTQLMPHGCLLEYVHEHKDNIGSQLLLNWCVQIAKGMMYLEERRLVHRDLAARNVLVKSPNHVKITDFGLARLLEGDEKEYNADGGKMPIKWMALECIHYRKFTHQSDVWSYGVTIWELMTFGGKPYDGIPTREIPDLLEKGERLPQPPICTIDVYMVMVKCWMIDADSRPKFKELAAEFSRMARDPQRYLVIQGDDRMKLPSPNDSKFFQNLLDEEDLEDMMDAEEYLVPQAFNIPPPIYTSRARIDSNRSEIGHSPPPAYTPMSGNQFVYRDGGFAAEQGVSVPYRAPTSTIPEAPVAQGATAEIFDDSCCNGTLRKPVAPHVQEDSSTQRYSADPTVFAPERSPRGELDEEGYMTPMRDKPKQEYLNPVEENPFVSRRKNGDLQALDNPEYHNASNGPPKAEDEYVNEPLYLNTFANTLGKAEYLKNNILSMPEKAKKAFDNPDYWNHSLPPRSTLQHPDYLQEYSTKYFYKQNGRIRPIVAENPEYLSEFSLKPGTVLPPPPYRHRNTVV
Protocol: Displacement analyses of radiolabeled NRG-1β were performed with CHO cells expressing ErbB-4. Cell monolayers (2×10^5 cells) were incubated for 2 hours at 4° C. with a radiolabeled NRG-1 (5 ng/ml) in the presence of increasing concentrations of an unlabeled NRG-4 (closed triangles), or NRG-1β (closed squares). Each data point represents the mean and range (bars) of two determinations.
Growth factors were labeled with Iodogen (Pierce) as described (Karunagaran et al., 1995). Chemical crosslinking to Chinese Hamster Ovary (CHO) cells engineered to express different ErbB combinations have been performed essentially as described (Tzahar et al., 1996). Briefly, radiolabeled ligands (at 100 ng/ml) were incubated for 2 hours with cell monolayers at 4 C. The chemical crosslinking agent BS^3 (1 mM) was then added and the cells were further incubated for 45 minutes at 22 C. […] Non-specific binding was determined in the presence of a 100-fold molar excess of the unlabeled ligani. Cells were then washed, lysed in a solution containing 0.1 M NaOH and 0.1% SDS, and radioactivity determined by use of a gamma counter.
Taken together, the biological effects of NRG-4 and its complex formation with ErbB-4 implied not only specificity of recognition, but also weaker interaction relative to NRG-1. To quantify the interaction, a ligand displacement analysis on ErbB-4-expressing CHO cells was undertaken. […]

[2] = system: D1 cells (32D expressing ErbB-1); assay: 32D cell proliferation, 24-hour dose-response MTT assay; format: cell-based; conditions: 24-hour dose-response, without IL-3
Protocol: (§1) The indicated derivative lines of 32D cells were tested for cell proliferation using the [3-(4,5-dimethylthiazol-2-yl)-2,5-diphenyl]tetrazolium bromide (MTT) assay. […] The MT assay was performed 24 hours later. Results are presented as percent induction over the control untreated cells, and are the mean±S.D. of 4 determinations. Each experiment was repeated at least twice with similar findings.
(§2) The establishment of a series of interleukin 3 (IL-3)-dependent 32D myeloid cells expressing all combinations of ErbB proteins has been described (Alimandi et al., 1997; Pinkas-Kramarski et al., 1996; Shelly et al., 1998). Cells were maintained in RPMI medium with 10% fetal bovine serum (FBS) and dilute IL3-containing conditioned medium. Prior to proliferation assays, cells were washed three times in RPMI/FBS and plated (5×10^5 cells/ml; 0.1 ml/well) into 96-well flat-bottomed plates with the indicated liconcentrations or with IL-3 (1:1000 dilution of conditioned medium). Cell survival was determined 24 hours later, or after the indicated time intervals, by MTT assay, as previously described (Mosman, 1983). MTT (0.05 mg/ml) was incubated with the analyzed cells for 2 hours at 37 C. Living cells can transform the tetrazolium ring into dark blue formazan crystals, that can be quantified by reading the optical density at 540-630 nm after lysis of the cells with acidic isopropanol.
(§3) To test the prediction that the novel transcript encodes an ErbB-specific ligand, the corresponding full-length EGF-like domain (residues 4-50, FIG. 1a, SEQ ID NO:2) was synthesized, denatured and refolded to allow proper disulfide bridging. This method has been used before to synthesize functionally active derivatives of other EGF-like growth factors (Barbacci et al., 1995; Lin et. al., 1988; Shelly et al., 1998). A series of derivatives of the 32D cell line engineered to express different ErbB receptors or their combinations has been previously described (Pinkas-Kramarski et al., 1996; Shelly et al., 1998). The myeloid 32D parental cells require cytokine stimulation, such as interleukin 3 (IL3) for their growth, and were chosen because they lack endogenous ErbB expression.

[3] = system: D4 cells (32D expressing ErbB-4); assay: as above; format: cell-based; conditions: 24-hour dose-response, in comparison to NRG-1β control
Protocol: as §1, §2, §3

[4] = system: D24 cells (32D co-expressing ErbB-4 and ErbB-2); assay: as above; format: cell-based
Protocol: as §1, §2, §3

D23 cells = assay: as above; format: cell-based; conditions: 24-hour dose-response
Protocol: as §1, §2, §3

D13 cells = assay: as above; format: cell-based; conditions: 24-hour dose-response
Protocol: as §1, §2, §3

[5] = system: D3 cells (32D expressing ErbB-3); assay: as above; format: cell-based; conditions: 24-hour dose-response
Protocol: as §1, §2, §3

[6] = system: D2 cells (32D expressing ErbB-2); assay: as above; format: cell-based; conditions: 24-hour dose-response, without IL-3
Protocol: as §1, §2, §3

[7] = system: D12 cells (32D co-expressing ErbB-1 and ErbB-2); assay: as above; format: cell-based; conditions: 24-hour dose-response
Protocol: as §1, §2, §3

B1: NRG-4: synthetic refolded mouse EGF-like domain of NRG-4 (residues 4 to 50, SEQ ID NO:2) (peptide, listed as Mus musculus)
chain: MPTDHEQPCGPRHRSFCLNGGICYVIPTIPSPFCRCIENYTGARCEEVFLPSSSIPSESNLSAAFVVLAVLLTLTIAALCFLCRKGHLQRASSVQCEISLVETNNTRTRHSHREH
[1]
  binding to untransfected CHO cells: failed to bind
ErbB-4
  lower binding affinity to ErbB-4 compared with unlabeled NRG-1: approximately 8 fold
[2]
  mitogenic response of D1 cells: did not respond
[3]
  mitogenic response of D4 cells: modest dose-dependent mitogenic response
[4]; 24-hour dose-response, MTT
  mitogenic response of D24 cells: responded mitogenically
[4]; cells co-overexpressing ErbB-2 and ErbB-4
  mitogenic potency compared with NRG-1 in D24 cells: almost equipotent
D23 cells
  mitogenic response of D23 cells: D24 cells) was the only line that responded mitogenically
D13 cells
  mitogenic response of D13 cells: D24 cells) was the only line that responded mitogenically
[5]
  mitogenic response of D3 cells: did not respond
[6]
  mitogenic response of D2 cells: did not respond
[7]
  mitogenic response of D12 cells: D24 cells) was the only line that responded mitogenically
